{"source": "patent US20240425867A1", "about": "“NUCLEIC ACID-BASED ASSEMBLY AND USES THEREOF” (Rheinische Friedrich-Wilhelms-Universität Bonn, priority 2016, published 2024)", "key": {"[1]": {"test": "Atomic force microscopy (AFM) size of nanoconstructs", "format": "physicochemical", "conditions": "Gaussian fit of at least 50 nanoconstructs", "protocol": "All AFM images of the trCLN3-L4 and HyApNc aggregates were taken by using a Nanowizard III AFM (JPK instruments, Berlin) in tapping mode. ACTA probes with silicon tips were used for imaging in dry mode in air. A volume of 3 μL (5 mM) of a solution of magnesium acetate (MgAc2) in water was deposited on a freshly cleaved mica surface layer and allowed to incubate for 3 minutes and afterwards the surface was rinsed with 2×10 μL of milli-Q water and dried under air pressure. For imaging a volume of 3 μL of the trCLN3-L4/HyApNc solutions in ultra pure water were spotted on the pre-treated mica surface and allowed to incubate for 1 min. After 1 min incubation on the mica surface, the excess sample solution was gently shaken off and the mica surface was blown dry with air pressure and mounted to the AFM microscope for immediate imaging. […]\nIn a first step. we synthesized the lipid-modified phosphoramidite 1 with a C12-lipid chain incorporated at the 5-position of the uridine base (FIGS. 2A-B). […] We evaluated the CMC of the trCLN3-L4nanoconstructs using Forster resonance energy transfer (FRET; Example 3; FIGS. 6A-C; Table 2) and fluorescence studies with pyrene-loaded trCLN3-L4 nanoconstructs (FIGS. 7A-B; Table 3). […] The trCLN3-L4 3 nanoconstructs have an average diameter of 21.2±1.5 nm (FIG. 8C, upper panel), consistent with the size of 25 nm measured by TEM."}, "[2]": {"test": "TEM size of trCLN3-L4 nanoconstructs", "format": "physicochemical", "conditions": "negative stain electron microscopy", "protocol": "The size and structure of the trCLN3-L4 nanoconstructs were analyzed by negative stain electron microscopy. Samples were prepared using negative staining. In brief, carbon coated grids (Quantifoil Micro Tools GmbH, Jena, Germany, 200 mesh) were glow discharged to render the surface hydrophilic prior to applying samples. 10 μL of an aqueous solution of trCLN3-L4 were applied to the grid. Afterwards excess solution was carefully blotted off using filter paper followed by 3 times washing with ddH2O. In the final step, grids were stained with negative staining reagent by placing them (plastic side down) on a 10 μL drop of freshly prepared 2% […] uranyl formiate aqueous staining solution. TEM micrographs were recorded using a JEOL JEM 2200 FS electron microscope (JEOL, Japan) operated at 200 kV. The size of the micelles measured on the TEM images could typically be observed in a range between 20 and 25 nm."}, "[3]": {"test": "Serum stability in PBS-buffered fetal calf serum (PAGE of 32P-labeled aptamer)", "format": "in vitro ADME", "conditions": "10% PBS-buffered FCS, 37° C., 0 to 72 h", "protocol": "(§1) Serum stabilities of trCLN3, its two point mutant non-binding variant trCLN3.mut and their corresponding lipid-functionalized derivatives trCLN3-L4 and trCLN3.mut-L4 were investigated in fetal calf serum (FCS) and human blood serum. For this purpose, the aptamer motifs were labeled at their 5′-end with ^32P to form radiolabeled oligonucleotides. The degradation tests of all the aptamer motifs were performed for 60-72 h at 37°° C. 6 pmol (12 μl of 0.5 μM) of the radio-labeled aptamer (5′-end-labeled with γ-^32P) was incubated in a volume of 300 μl freshly thawed PBS-buffered FCS or human blood serum (270 μl serum+30 μl 10×PBS). For each measurement, 10 μl of the samples were removed, mixed with 90 μl of gel loading buffer (80% formamide+5 mM EDTA+0.01% SDS) and subsequently stored at −20° C. Aliquots of samples were taken after indicated time intervals of 0, 0.3, 1.5, 3, 6, 24, 48, 60 and 72h respectively. The serum stability of the aptamer in FCS or in HBS at different time intervals were analyzed on a denaturing PAGE by loading 10 μl of each sample onto a 10% TAE-Urea gel and running the gels for 90 minutes at 350 V. Gels were wrapped in clingfilm and exposed to a phosphorimager screen in a closed cassette over a period of 12 h and finally the residual intact aptamer bands were analyzed by scanning the screen in a phosphorimage-scanner (FujiFilm FLA 3000). Intensities of the residual intact aptamer bands were calculated applying AIDA image analyzer software program. Serums half-lives of the selected aptamers were determined by using a half-life curve-fitting data analysis program (GraphPad Prism)."}, "[4]": {"test": "Serum stability in PBS-buffered human blood serum (PAGE of 32P-labeled aptamer)", "format": "in vitro ADME", "conditions": "10% PBS-buffered HBS, 37° C., 0 to 72 h", "protocol": "as §1"}}}
{"substance": "trCLN3-L4: trCLN3 aptamer with four C12-lipid-modified dU residues at the 5′-end; self-assembles into micellar nanoconstructs (TGGATGGTAGCTCGGTCGGGGTGGGTGGGTTGGCAAGTCT; four 5' C12-lipid-modified dU residues, chemistry not fully specified)", "values": [{"measurement": "average diameter", "setting": "[1]", "value": "21.2±1.5", "unit": "nm"}, {"measurement": "size measured by TEM", "setting": "[2]", "value": 25, "unit": "nm"}, {"measurement": "serum half-life (t1/2)", "setting": "[3]", "value": "no significant degradation even up to 72 h"}, {"measurement": "serum half-life (t1/2)", "setting": "[4]", "value": "no significant degradation even up to 72 h"}]}
